Laboratory results from PMC9994480, “Infancy‐onset diabetes caused by de‐regulated AMPylation of the human endoplasmic reticulum chaperone BiP” (EMBO Molecular Medicine, 2023).
Residue numbers refer to the chain shown, from its start. Numbers in names are those of the source.

B1: wild-type FICD, structured luminal domain (residues 104–445) (enzyme, human, UniProt Q9BVA6 104-445, looked up)
chain: LEARAALNQALEMKRQGKREKAQKLFMHALKMDPDFVDALTEFGIFSEEDKDIIQADYLYTRALTISPYHEKALVNRDRTLPLVEEIDQRYFSIIDSKVKKVMSIPKGNSALRRVMEETYYHHIYHTVAIEGNTLTLSEIRHILETRYAVPGKSLEEQNEVIGMHAAMKYINTTLVSRIGSVTISDVLEIHRRVLGYVDPVEAGRFRTTQVLVGHHIPPHPQDVEKQMQEFVQWLNSEEAMNLHPVEFAALAHYKLVYIHPFIDGNGRTSRLLMNLILMQAGYPPITIRKEQRSDYYHVLEAANEGDVRPFIRFIAKCTETTLDTLLFATTEYSVALPEAQP
notes: human FICD, structured region, residues 104-445; The methods say His6-SUMO fusion (cleaved by Ulp1) or GST fusion (cleaved by TEV) without telling which for which protein; Purification as in Perera et al, 2019, 2021; also called WT; FICD^WT; not shown: His6-SUMO (or GST)
B2: FICD^R371S, structured luminal domain (residues 104–445) (enzyme, human, UniProt Q9BVA6 104-445, looked up)
chain: B1 chain with R268S
notes: human FICD, structured region, residues 104-445, with the patients' variant p.(Arg371Ser); Variant found homozygous in patients (NM_007076.2:c.1113G>C); also called Arg371Ser mutant FICD; FICD p.(Arg371Ser); not shown: His6-SUMO (or GST)

Target: the molecule itself
Assay: SEC; analytical SEC, Agilent Bio SEC-3 HPLC column, TNT buffer (25 mM Tris pH 8.0, 150 mM NaCl, 1 mM TCEP), 25°C; proteins diluted to a range of concentrations (Fig 3B) and incubated at least 1 h at room temperature; 0.3 ml/min

| Protein | stoichiometry N |
| --- | --- |
| B1 | 2 |
| B2 | 2 |
